Experimental data: paper PMC2885824

Molecular target: human alpha-thrombin (Homo sapiens, UniProt P00734;P00734 328-363;364-622)
Assay: competition

B1: 15nt anti-thrombin DNA aptamer (structured_DNA)
DNA: GGTTGGTGTGGTTGG
binding result: binds
